Results reported in the NTF2 design screens of Basanta et al. (2020).

Assay: protease stability score; higher = more stable; yeast display proteolysis, trypsin and chymotrypsin;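 further: relative to predicted unfolded state with 0 unfolded-like and 1 meaning tenfold more protease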

Sequence | protease stability score
DEETELDERVIKLLIEALKTGDEHLKERMMDPRVRFLIDGVDLIGREWAFHIARHWRIHIHHIEHKSISRQGDYLRVNGKEDGVEEFDGRRVEKEVSSHRLILKIDGRWVLTHVELR | 1.28
DEETELTERAIEESKHNMETGDEDRLIELIDPNVKVEIGDKTFHGWEELMRWWHELGIKHVHLEFHDVKHFNGRIEVDGRLHIDVNGRTILLRVELYFQKINGQWFKESIHIK | 1.67
DEETEWLERLVRVILHALDTGDEDEMNQNADPHTRVRVGDKEYHGRELFLDVFRERVHRLGIDHSNLREFDIQGDFFHLDTRLQVGDKFLEVNLIFHVINGRITIVRIDYR | 1.15
DEETKELEEIMKFYISAFRTGDWRLIEELADPNVRLNVDGREFHGREQFLKHFREELEHLGIDHVHVDHIDIQGEKLIIRLTIHVDGREIHNILILIIVNGRLHEVKWIRV | 1.58
DEETKETIELMEKFRQDEETGDWRSLHRMADPHTKLVVDGREYHGMEHATTYLVEFIEHFGVKHFHIEDSHVVDGRIVLHTRVEVGDKSREIRIVALKINGVWLMQSIEIG | 0.102
DEETKFLLDIFRLVLELFMTGDEDTFSRLFDPNVRNEVNGVEAIGWHQVRELIKEILKEIRIEHIHIHDVRAVGDKVHADTRTDGIINGKRQRRETHVHLETVNGRLKSIWLQIE | 1.13
DEETKIIEHILEHWLRLIQTGDFHELFRLVDPNVRIDINGVEYHGREEMIKFWKEEVDKLGVDRIHTDLNRNEYQGDKIILHQEVRINGRHIDIHVHAEKVDGVWILRILKRD | 1.57
DEETKKLRKFMEQFIEALRTGDEEILEHLIDPNVRNIVGDKQEHGRELLLTWLVKYKGVRWMIDHITIINGVIEIHGTLQVGDKEISIHIHVLVINGKVKSVEIREN | 1.47
DEETKLNHLAIRLWLQSVMTGNEELQTKLIDPHVRNHIDGREYHGREVFRENLRDLWEKYGVKHVELTHEHSQGEKVHLRFKVDVNGRELDHKIIAHKIDGRWLDHSIHFH | 0.611
DEETKRAEELMELWLHLLRTGDEELLSELMDPHVRLDINGVELHGREALLQWHHEHRRRIDHREIRVESRRIQGEKVEQHEDIIIHVNGVEFRHREFYEVVIIDGRFKELHIEHE | 0.546
DEETNLSKLVMEISLELLETGDEEHIHRFVDPHARTILFIDGREEQVHGREQASKWIMWTVKFLGVDHIEVEDTKIVNGVAHLNIRMEVGDKRLTSHFTSEKVNGKWLIKDIRIRID | 1.94
DEETQNVRTILEEFVHDFETGDERLMHRYLDPNVRIDWNGRDYHGRETMFQMIRELSDKIKNIRIRIEHIDIINGVIIIHGDLHYNGKDVKTTLYFLKVNGRWLITRLEYK | 1.39
DEETRATKRFLDEVLEARATGDWRTLTRNMDPHYRLEIGEKEVHGMEEVSHMVTEEMVRLGIKHSDLKIKDSRFYNGVLHLDGRLILEVNGVRLESDVTLVELKVNGRWQIRFERWE | 1.08
DEETRDFDVAFMYFILFEKTGDERELLELLDPDARMVVGDKRRVGRESVLHFMREHLRTLGFKHVEDIELHDFKVYDGRIELDIRVRGRVNGKTHTLTYLMIAHKVDGRWFIHSLEVR | 2.14
DEETRDIIHILKLLWDAIRTGDEEAIRRLLDPDMRIQVGDKEIHGREEFLKEISHWRYDLESFHIKHVDVINGVAIIHLHIVGRFHYDGRTYHDSYEEDVFIFKVNGRWHFHQIKYR | 1.84
DEETRDLHHALRIVLHILRTGDFSHLFEYADPHVKIDINGKEVHGMEQMHHEIERLYFELGVDNVTVQHKRIIVYDGRVLVHMISHIGDKWRDIIIIFLKVNGRWRLHSIEVK | 1.72
DEETREAKEAFDIIIKHIETGDEDLLSEMLDPNVRINQGEFRIHGREAVEEWLNYMLHHMRVHVRSEEVRVVGDKVESDFRVQINQGDKIYHHDTRLFLFKIDGRWFIESMEFH | 1.36
DEETRHAREMMRIIAESLHTGDEDRLLEMIDPNVRVHVDGQDYHGREQWFQYLHEELRHLRIKHLTVTHHKVYDGRVELHLRVHGEVNGRHTEKTFIVIILKVDGRWKIESLRIE | 2.15

Sequence | protease stability score
DEETRMSEHAERLLIRSIRTGDFEEITRLADPHVRVHIGDKDIHGRESLSEVLEKTMRKFGVDNVDYKIEDSHTYDGRIDIRGRLEVNGVKREVRFHSLKIDGRWLLTHVEMD | -0.04
DEEVAKKMMEAWMKALQNGNDEQMKKLYDPTVRWEDGNTEKQGLEVVVKLVQTVKKKGIEFQVRKAKVKGNQVEVHYDMKVGDDTVTFTVQFRAQGGRIQEVRVEISEEARKAVKKG | 1.32
DEEYDIAEEILHLLVELILTGDEHEILRYADPNVRLIIGDKDIHGMDWVSRFNMHLRLDDMKWELKRAHVYNGVIDNRGHLVMHGEIDGRHDTIKRETRILINKVNGRWNIREILIH | 0.653
DEEYESMKIAVERLVQAHKTGDEDFLRELADPHVRVEIGDKRMHGWDRFDEWFKFVHHHLRIKDVDMKEFHIQGNKMHVRLELHGHYNGRDLILERHVILLKVNGRWILHVVQLG | 2.3
DEFEEAIKLVDDIRSFALLTGDEKELKHMADPNVKLDFNGVELVGMERVWKFFEEIRLVERHVHIKDRDVQGDKVRVDGRQDIEVQQGDKKSRMDIRLDIIIKKVDGRWIVHSLVLI | 0.77
DEFEKDFRFAIEEWLKVVRTGDEDRAHELMDPDVKLDIGDKRHHGREEMLHHVRRADVIHDYKIKDLKFQGNYITVQGEVDGQIGDKRIRTEVRVIILKIDGVWLWRQNYER | 0.907
DEFEKTAEELLRRLVKNMKTGNEDMISHLLDPNARLEVGEFEYHGREQLVRFLVHLRVDHVDLHHVEVQGDKLILDTRTDGTFNGRRRNIRETIIIRKVNGKWIIESYHVE | 1.46
DEFHELARHALKLFKDTMDTGDEHTLEHLVDPNVRLLVDGQEIHGREAMEEFWRRVPNLRLYFHDVRVIGDKIIVDGKIEYGDKEIDSRIYLRKINGRWRFESVELR | 1.4
DEFHHLLELFLKLLAEQSRTGDEDSFERLFDPNVRVDINGRELHGWEAYQETRDRLGIERFDLRRIHSHTVNVVNGQVHMDMRTDGVIGDKRIDRTIHIRTTKINGRWFFTHLEWE | 0.578
DEFHHSVELAIRIIFEILRTGDEHHMDTMADPDVRIIIGDKHNVGRELVKDVMRRLVTEWRIRHWEIKNSHLIGDKLLVDSHVEVEVGDFNLRTDVHLVFTKINGRWTLHSHHID | 1.09
DEFHHWYERVIQEFDHAVETGNEHRIRELLDPNVRIIIDGQDLHGREDMIHLISEIRVSITDRRERSFRPVGDKINLLMRVDQQVFVDGQTEQVDTEVRWIIIKVNGVWLIRRIEVI | 1.47
DEFKELTTEFIKQFLDNIRTGNEELLRELADPHVRFLVNGRELHGRESFVETFRHWRMKDWEIRDVEVYGEKLVMDGHVRVNIDGREDSVRVRLYVDKIDGQWHHRRFEFN | 1.76
DEFNEATRRALHEEMKTRHTGDEDLFHRLADPDVRVIYGDKHIHGREEVVHWLREIRVKTHHLEIRRSHFQGEKAHVDGKLNGDFIFDGRTFTVQIHVEFIMIKWNGQWRIEMLRFE | 1.09
DEFQHMAELASTLFQRSNHTGDEHSLQEMLDPNVRVIVGDKEFHGMEELLKTLRKELEILGVQRIETEVHQVNVQGNKINVDLILHVNGRERRIHLWAHKINGRWITERIEVR | 0.922
DEFREIIRRAMEIYRHSERTGDEDTIREMVDPDVKLDIDGKEIVGWERLLEFLTRVDHIHLHLNNMKLQGDYVIHDGELRLNIDGRNISTRIVIIAEKVNGRWHMKHVEFR | 1.24
DEFRKDADRALHMFEDKIRTGNWRELDKLLDPHVRFEYGDKIHHGREQFKYFMDRYDHITARDHKIDHVEFQGDYLHMDTTVDGELFIDGKNIRIVNKSKLVLLKVNGRWTMHFLSHD | 0.818
DEFRRDALETHEDEIRDYLTGDWKSSKHLADPHARFVVGDKHYHGWHEMVRLVKENQEKFGIDHSEFRIHDSHVQGNKVIMDVEIHLTFNGKKIHTRSTILLVKINGVWLNTEIHID | 0.072
DEFTELTREVLHRIVTHLRTGNEEELARLMDPNARLEINGKEFHGREEILRLIHELEKKMGIKHVDMVIRRDTIIGDYARVNGEIIIIVDGKEIRLDTEIFILKIDGKWFIRTESIR | 1.21
